Laboratory results as given in patent US20090042248A1 (TARGETEX KFT, published 2009).

Target: T1, MASP-2 CCP1-CCP2-SP fragment (human, UniProt O00187 291-444; O00187 445-686)
T1 construct: range 291-444;range 445-686; also called MASP-2γB; MASP-2 catalytic fragment
Assay: SDS-stable complex formation of 125I-labelled MASP fragment with C1-inhibitor; irreversible inhibition preceded by reversible complex formation, non-linear regression
Method: To assess the rate of SDS stable complex formation between the MASP-1 and MASP-2 CCP1-CCP2-SP fragments and C1-inhibitor, the ¹²⁵I-labelled MASP fragments at concentrations ranging between 30-100 nM were incubated with 100-350 nM C1-inhibitor at 37° C. in 20 mM HEPES, 140 mM NaCl, pH 7.4 for 40 minutes. Typically 11-13 samples were taken at varying time periods. […] The samples were further incubated at 37° C. for 30 minutes and run on reducing SDS-PAGE. Cleavages rates were visualized by means of autoradiography and the diminution of the reacted MASP chain was quantified using a GEL DOC 1000 instrument and Molecular Analyst Software for densitometric calculations (Bio-Rad, Hercules, Calif., USA). The kinetic constants were calculated assuming irreversible inhibition proceeded by reversible enzyme-inhibitor complex formation. Using steady-state approximation and neglecting the starting enzyme concentration compared to the starting inhibitor concentration ([I₀]>>[E₀]) the data was regressed on the following equation using non-linear regression methods: [E]=[E₀]exp(−kobst); kobs=k₂[I₀]/(Kᵢ+[I₀]), where kobs is the observed pseudo-first order rate of reaction, k₂ is the rate of irreversible enzyme-inhibitor complex formation and Kᵢ is the inhibitory constant.

T1 sequence (O00187 291-444 limits assumed, form in doubt, chain 1 of 2): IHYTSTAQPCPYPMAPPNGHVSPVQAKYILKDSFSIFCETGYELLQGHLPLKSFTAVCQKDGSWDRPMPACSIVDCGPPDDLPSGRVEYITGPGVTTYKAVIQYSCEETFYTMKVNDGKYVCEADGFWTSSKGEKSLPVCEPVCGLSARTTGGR
T1 sequence (O00187 445-686 limits assumed, form in doubt, chain 2 of 2): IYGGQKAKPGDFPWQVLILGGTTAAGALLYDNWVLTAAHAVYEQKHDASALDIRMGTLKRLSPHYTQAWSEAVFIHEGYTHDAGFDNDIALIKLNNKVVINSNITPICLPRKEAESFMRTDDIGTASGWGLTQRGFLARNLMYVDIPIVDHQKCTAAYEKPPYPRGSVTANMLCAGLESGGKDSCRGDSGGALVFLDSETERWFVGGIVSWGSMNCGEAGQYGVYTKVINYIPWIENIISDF

- Ki: 8.8 nM
B1: C1-inhibitor (other, human, UniProt P05155 23-500, looked up)
chain: NPNATSSSSQDPESLQDRGEGKVATTVISKMLFVEPILEVSSLPTTNSTTNSATKITANTTDEPTTQPTTEPTTQPTIQPTQPTTQLPTDSPTQPTTGSFCPGPVTLCSDLESHSTEAVLGDALVDFSLKLYHAFSAMKKVETNMAFSPFSIASLLTQVLLGAGENTKTNLESILSYPKDFTCVHQALKGFTTKGVTSVSQIFHSPDLAIRDTFVNASRTLYSSSPRVLSNNSDANLELINTWVAKNTNNKISRLLDSLPSDTRLVLLNAIYLSAKWKTTFDPKKTRMEPFHFKNSVIKVPMMNSKKYPVAHFIDQTLKAKVGQLQLSHNLSLVILVPQNLKHRLEDMEQALSPSVFKAIMEKLEMSKFQPTLLTLPRIKVTTSQDMLSIMEKLEFFDFSYDLNLCGLTEDPDLQVSAMQHQTVLELTETGVEAAAASAISVARTLLVFEVQQPFLFVLWDQQHKFPVFMGRVYDPRA
notes: mature; Serum-purified, glycosylated; molecular weight of 71.1 kDa used
